Data taken from a protein production outcome set (Wang et al. 2014).

Experiment: label from the status in PepcDB records
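Also: failed if final PepcDB status was selected cloned or expressed and not failed if soluble or beyond.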

For “MSELARIVPDSEKISHILIEQGRKITFYSYFSNTFVLGIIAYILVDNTVALDKNSLFFVKTLPFRKKDISLSFMLFKFVIMILLYELVMIISTPAIKLVTTVPIEYVIFFIVQHLFYLVVIGVIEFIHCLFTFFLKRRVKQINSLKVIGDSLLMIFATFYFFDFRYGLELFLANQLWSISYMIPITFFLIVVCLMLISIGLLRLISILENQMSQHSKYIYIPFLNKVIFRYKANWYFISFTTVVMLVIFFQSGLRTMLFILTTVMAFSGVLLLSYGDITADFRKQYDLLRIKIRNEWLSQLLLVIMLAMPLLLLCFWGFGELAQLITALSLSLVAIILGYVFPKSQGSLNETTSLLLLFIVFVLVSLLTNRSFGWLILIVLVLLHLLVIKKVRNEKE”, the protein production was “failed”.
In the case of “MSELDVEAVDDINAPAGIDAAEYVLYGGKGGVGKTTCAAATALASARDDTATLVVSTDPAHSLSDTLDADIPATPTRIREDIPLYAAEIDPEAAVGEGPLGVEEDALGGVGELLGGDGMFGGGAGGAAGAGQAEDPIGGEEGLLGGSMPGADEAAALRLLLDYVDDDRFDRVVIDTAPTGHTLRLLELPETMDSMVGKILQLRERFSGMMDNLTGMFGDDQDVDAEAGIEDLQELSDRIEHLRGILQDPQRTDFRIVMVPEELSVVESERLLAQLGEFNIPVSTVVVNRVMQDPSEVLGEDVDIAGPNHADCEFCARRWQVQQDALARSQDMFRGHDVRRVPLFAEEVRGERLLSVVAACLD”, the protein production is reported as “failed”.
For “MSELGNRAKDQKKIYQRWAPVYDRVYRGILRDGHRKLAGLAAAAGTDILEIGTGTGLTLAHYPSRCRVTGIDISEHMIARAREKVRRENLRHVRALEVMDAHVLRFADKSFDVVCLPFVITLIPEPERALDECARVLRPGGEIILASKLGDGAGLQGAIEAAVAPLVRHIGWSSAFRIHRIVAWAERRGDFSTAEILPVFPNGFFKIVRLKQRGFSA”, the protein production was “failed”.
With “MSELIKHSSNFLAAISPDNDCSITATNDFEAMMSWLNGYKKKPINTSRNYAREVKRYLIWLSCQGLTLAQVKIEDVYEYFNLLERPTTEWIIPDKKTDKIYPTQLIKYGGLSNRSINYTHTVLGLFYSFLQDAGYLTKNPINLEHHHHHH” the protein production was “failed”.
In the case of “MSELIKHSSNFLAAISPDNDCSITATNDFEAMMSWLNGYKKKPINTSRNYAREVKRYLIWLSCQGLTLAQVKIEDVYEYFNLLERPTTEWIIPDKKTDKIYPTQLIKYGGLSNRSINYTHTVLGLFYSFLQDAGYLTKNPINLVKKASATTESEQYRHLDLPAWQTLWTWILGYENRVITEDQPAKMIKKASRYRWVFALLYHSGIRCAEAANALMSDLVRKNNTWSLKVTGKGNKMRLVTVNSLLLKELIHYRRSLLLTDYPSSHDDTPLIVSIQKNRQGSMTTRTLSSLIKEVTELVCADCQDDQITRQIETMTTHWLRHTNATHRFMAGASLETTQDELGHADPRTTRIYAKTSNEKRKLDAERLADLFDGIG”, the protein production is reported as “failed”.
For “MSELTAFGHSLSSGYEVVVIKPQSLSDTTLIVQALRADKAVILNLEHLDVAEAQRISDFAAGSTYAINGHQSRLGDGVFLFTPNVINIQERTAVPTPAGLV”, the protein production was “failed”.
With “MSEMIYGIHAVQALLERAPERFQEVFILKGREDKRLLPLIHALESQGVVIQLANRQYLDEKSDGAVHQGIIARVKPGRQYQENDLPDLIASLDQPFLLILDGVTDPHNLGACLRSADAAGVHAVIVPKDRSAQLNATAKKVACGAAESVPLIRVTNLARTMRMLQEENIWIVGTAGEADHTLYQSKMTGRLALVMGAEGEGMRRLTREHCDELISIPMAGSVSSLNVSVATGICLFEAVRQRS” the protein production was “not failed”.
With “MSEMLYILQTVLLPIFIMIFLGYILQKKFTLDLNTLAKLNIYVFVPGFIFVKFYKTHFALSLLFYIIIFFVIYMFVLFLIGKLLSMFRKTDKGETTTLTNSLMFFNSGNYGVPVNDLVFKGDPLAMSVQVIVLSLQNIFTFSYGVFAIQSLHIGKLKALLGYFKMPVLYALLLAIILNYNHIPIPEFIWTPANYVADAMIAIALLMLGAQISNIKFSLKWSKSYAYVFIRLIIGPLIALVIIKIMGIEGIIAQTLFIASAMPTSVNSSVIAQEYDNHPELAAELVFLSTLLSAITVVIVIYMSKILF” the protein production was “failed”.
For “MSEMSPKEFKHILVGVDDSDDAQLAFRYAINRAKSDGAKLTIVSILEQDNMNVYEAMSKDFVHGQRKDLEEHVQQYQKLARDFGVTDVNAVVDEGDPGETIVKTVIPALKPDLLVIGSVAKHGVRKYFGSQAAYMAKHAPISVLVIR”, the protein production was “failed”.
For “MSENMVNLPDSLYEDYSKLKLTSPSNASSSSSAPPPRLSVVAHPTVEMIIQWVCDIHKPKSYMSDFALHNLAYHRNDFEFLPSLLWESKNTVYIMLQEVFEAYRHLAGHISLRLFPHPLNPLRVYNVFLLFQSMACHPDTSRQFLRAKMPNYFYPLMDTGLIDKSDECMRLAALGVIAHMLKASEDGAVNRYLMESGVVGFCVKPIEFGSTETKKVALYILDKIMSTDQGLYYCCVLADRFYVIDELLKKVLFYLSNMVRPPSSLFSLVTGCYVKLSQNSRARNGIRRYTPFLLFDGTFSRLYAEDPVAANNRIQLLQNLDN”, the protein production was “failed”.
In the case of “MSENQKEVSPPQAISVKSEASSSIFSKPISTSSPAGLAAAQRVTPGKLSTLLLEMGPLAIRHITQTLCLDIPCFKDLSSSKQRRLIMSAMESGDKEKSVVFEKIGWGQWSAKRVDPANFDKELEATNFANAKVKDLISQESQRRKSNNSNSNSGGKVEMPMKVEHNITNIDGATTPPTAVASTTIPVNIKRSKSPLAAANVVYIDENALASEDEDEEFDEDDHHLHYQNKSRNSSNNFGKSSNGDPYSFGRRRSQVVFADSTPENIEHEIIAQKIRPLLRNRRRSSIKPHTPFISKLNTHQDSSYLSPNTTSTTTPSNNNSNSNQAKIDLEKLTATSEPTSRRASRLSVSKESSIRSTLFPNKNYLIVTTNPNSKATSVSTSPKLEEQMNVSSNPIVLSDKEKHRVASQHLNGESSPQLVPHSHHQPHSDTDEEDWESIGAASLRNNSLAPNIDSVASSTNGVVSPKPTNPSFTNSQNGDIEPPLQHDQQKHEQQPRNGEDNSAAFLLMSLKS”, the protein production is reported as “not failed”.
In the case of “MSEPVSSATVLAGGLMGASVFGLATGTDYGVVFGAFAGSVFYVATATNIGRIRLVAYFITSFIVGVLGAGLIGTKLAAITHYEKPLDALGAVIISAMCIKFLTFLNSQDLNTLFSILSRIRGGGSDGSK”, the protein production is reported as “failed”.
With “MSEQPSSVSGVKKVAIIPEIHISAPVLAKIVSYVAEESVDALKPFVKAGPLFKSAVYSKETLSCVRLDKSRYYMWWSTTHSIYYHFFTKSLEAKNPHALNAVLYKPIAYENFAAECYRATLWAELYGEYEA” the protein production was “failed”.
For “MSEREHWQRVYESKPSDAVSWFQAEATLSLDLIRRIGAPREAAIIDVGGGASTLVDGLLAEGFGDLTVLDLSDAALRVARNRLGARGEEVRWIAGDITGVDLPEATYDVWHDRAVFHFLTTAEARRAYVRQVMKAVRHGGHVIVATFAADGPTECSGLPVMRYDADELHAEFGSAFQLTEHRDEHHVTPAGRVQHFVYCHCLKRLLEHHHHHH”, the protein production was “failed”.
For “MSESTYPSVKDLTLEEKASLTSGGDSWHLQGVESKGIPGYMITDGPHGLRKSLASSTGETDLNNSVPATCFPPAAGLSSSWNPELIHKVGEAMAEECIQEKVAVILGPGVNIKRNPLGGRCFEYWSEDPYLAGHEAVGIVAGVQSKGVGTSLKHFAANNQETDRLRVDARISQRALREIYLPAFEHIVKTAQPWTIMCSYNRINGVHSAQNHWLLTDVLRDEWGFEGIVMSDWGADHDRVASLNAGLNLEMPPSYTDDQIVYAARDGRIAPAQLDRMAQGMIDLINKACAAMSIDGYRFDVDAHDEVAHQAAIESIVLLKNDDAILPLNADPAAARKIAVIGEFARTPRYQGGGSSHITPTKMTSFLDTLAERGIKADFAPGFTLDLEPADPALESEAVETAKNADVVLMFLGLPEAAESEGFDRDTLDMPAKQIALLEQVAAANQNVVVVLSNGSVVSVAPWAKNAKGILESWLLGQSGGPALADVIFGQVSPSGKLAQSIPLDINDDPSMLNWPGEEGHVDYGEGVFVGYRYYDTYGKSVDYPFGYGLSYATFEIADVAAAKTGANTATVTATVTATVTNTSDVDAAETVQVYVAPGKADVARPKHELKGFTKVFLKAGESKSVTIDLDERAFAYWSEKYNDWHVESGEYAIEVGVSSRDIADTVVVTLEGDGKSQPLTEWSTYGEWEADPFGAKIVAAVAAAGEAGELTKLPDNAMMRIFLNSMPINSLSTLLGEGGKKIAKFMVDEYAKLAK”, the protein production was “failed”.
With “MSETITFPPLMTGEAAGPGQDPFDLACQKAELGVDAGLVVYELGTDVLRAALVLAPEVPLAKAMAMLPVCGVGFQNALGALAPPEVAVHLDWNGALRINGARCGRLRIAASTDDPDTQPDWLVVGLDLPLWPEGDGGETPDETALYAEGCADVAAPRLLESWARHCLHWINRWDEGELETIHGEWRGLAHGMGEARTEAGRSGTFLGVDEDFGMLLRDETTTHLIPLTTVLVQD” the protein production was “not failed”.
For “MSETTQTSQSLYQALWNSADVLRSKMDANDYKSYLLGMVFYKYLSDKMLFFVAETMEEETESLDEALAVYRKYYEDEETHEDLLAVITDEMSYAIHPDLTFTALVERVNDGSFQLEDLAQGFRDIEQSDELYENLFEDIDLYSKKLGATPQKQNQTVAAVMKELAVLDVAGHAGDMLGDAYEYLIGQFATDSGKKAGEFYTPQPVAKLMTQIAFLGREDKQGFTLYDATMGSGSLLLNAKRYSRQPQTVVYFGQELNTSTYNLARMNMILHGVPIENQFLHNADTLDEDWPTQEPTNFDGVLMNPPYSAKWSASSGFMDDPRFSPFGKLAPKSKADFAFLLHGYYHLKQDNGVMAIVLPHGVLFRGNAEGTIRKALLEEGAIDTVIGLPANIFFNTSIPTTVIILKKNRTNRDVYFIDASKEFDKGKNQNIMTDAHIEKILNAYKSREDIDKFAHLASFEEIVENDYNLNIPRYVDTFEEEEVEPLTEIVAKINQTNATIESQTASLLDMLGQLHGTTPEADEELKAFVKAFKGLEHHHHHH”, the protein production was “failed”.
With “MSETVTQVNETTQQIVRSRTCGLKDFYIALVQSNTATAYTAGTPVKLARAIKAKIDEKWTSEKIYSDDNTEEVITSYEGTDVELEINALAPQDRVILFGQLYEKGFLRKSSDDRAPEVAVGWRERKLNGKYEFKWLYVGKFAEGISEEASTLEHHHHHH” the protein production was “not failed”.
For “MSEVLTRGFRFRPADEEVTDYLMRKTQSPEFSCFIKTIDLYDKDPWVLGHVRDPCYNHYEWYYFVKKNPLGNEYLDKPRLNGFEHPRLKWDVLKQIHDALSSGQNVPPSVFTYGFRFHPTDQELLSLYLTPKAHSPDFSCFIRERESYMPWSHGFLNMLDLLFTRTVNGTTL”, the protein production was “failed”.
For “MSEVTRSLLQRWGASLRRGADFDSWGQLVEAIDEYQILARHLQKEAQAQHNNSEFTEEQKKTIGKIATCLELRSAALQSTQSQEEFKLEDLKKLEPILKNILTYNKEFPFDVQPI”, the protein production was “not failed”.
In the case of “MSEWRGFNRKGNTMKIRPGRHNAPDFPHGAAVTIGNFDGVHLGHKHILQKLRLEADARGLPVVAVVFEPQPKEFFALRTGKTPPCRISPLRTKLELLEGTGCVDAAWVLRFDRNFSEISAQAFIDRLLRQTLNTRYLLVGDDFRFGAGREGCFELLAQQPDMQTERTPSVIVEDIRTSSTAVRQALSDGNLAYAKKLLGHDYVLGGRVVHGRKLGRTLNAPTANIRLPGHRYALGGVFVVEADGAFGTRRGVASFGFNPTVDGGCSQKLEVHLFDFQGDLYGQRLNVRFLHKLRDEEKFDGMEELKRRIEADMEAAKCW”, the protein production is reported as “not failed”.
With “MSFASETKKELTNLEVKDCCAKAELSALIRMNGSLSFSNRKVVLDVQTENAAIARRIYTLLKKQYDVSVELLVRKKMRLKKNNVYIVRLIENAKPILEDLKILGDNFVIARNISEDLVKKRCCKRSYMRGAFLAGGSVNNPETSSYHLEIFSLYKEHNDSLCRLMNQFHLNSKTLERKKGYITYLKEAEKITEFLNVIGAHNSLLRFEDVRIVRDMRNSVNRLVNCETANLNKTIGASLRQVENIKLIDERIGLDALPEKLREIAQLRIDYQEVTLKELGEMVSSGKISKSGINHRLRKLDEIAEQLR” the protein production was “not failed”.
In the case of “MSFEAFTELYIRDVKNRLKENTWLTKEHIIRTKILPFFGKLKISEISTKEIITWQNEMLAYRDEKKKPYSQTYLKTLHNQLSAIFNHAVRYYELRSNPAAKVGNMGSELEHHHHHH”, the protein production is reported as “not failed”.
